Columns and labels:
αVβ3 integrin [1] = molecular target: αVβ3 integrin (UniProt P06756)
αVβ3 integrin [2] = molecular target: αVβ3 integrin (UniProt P06756); assay: BLI; Octet Red 96; biotinylated αVβ3 integrin on streptavidin (SAX) biosensors, usGNPs in solution, association 40-60 min; 50 mM HEPES pH 7.4, 150 mM NaCl, 5 mM KCl, 0.1% BSA, 0.05% Tween 20, 50 µM CaCl2; 30 °C; Kd approximated from the response at equilibrium against usGNP concentration, fit to the Hill equation
αVβ3 integrin [3] = molecular target: αVβ3 integrin (UniProt P06756); remark: listed apart in the source

Row | Substance | uptake by U-87 MG cells (high αVβ3 integrin), 1 × 10^8 particles per cell, 60 min, internalised gold by ICP-MS (usGNPs per cell) (αVβ3 integrin [1]) | Kd (αVβ3 integrin [2]) | cytotoxicity on αVβ3 integrin expressing U-87 MG cells (XTT viability, 3 days), IC50 in DM1 equivalent concentration; DM1-usGNP without cRGD 25.2 nM (αVβ3 integrin [3])
1 | LowcRAD-usGNP, (α-Galactose-C2)145(PEG(8)COOH)125(cRAD)20@Au2000 | 1.6e+06 | – | –
2 | HighcRAD-usGNP, (α-Galactose-C2)145(PEG(8)COOH)85(cRAD)60@Au2000 | 2.7e+06 | – | –
3 | LowcRGD-usGNP, (α-Galactose-C2)145(PEG(8)COOH)125(cRGD)20@Au2000 | 4.9e+06 | 3.2 nM | –
4 | DM1-cRGD-usGNP, (α-Galactose-C2)135(PEG(8)COOH)115(cRGD)20(DM1)20@Au2000 | – | – | 5 nM
5 | HighcRGD-usGNP, (α-Galactose-C2)145(PEG(8)COOH)85(cRGD)60@Au2000 | 1.67e+07 | 0.0292 nM | –
